Target: T1, Human γ-catenin, MYC/DDK-Tag (recombinant) (human, UniProt P14923 1-745)
T1 sequence (looked up): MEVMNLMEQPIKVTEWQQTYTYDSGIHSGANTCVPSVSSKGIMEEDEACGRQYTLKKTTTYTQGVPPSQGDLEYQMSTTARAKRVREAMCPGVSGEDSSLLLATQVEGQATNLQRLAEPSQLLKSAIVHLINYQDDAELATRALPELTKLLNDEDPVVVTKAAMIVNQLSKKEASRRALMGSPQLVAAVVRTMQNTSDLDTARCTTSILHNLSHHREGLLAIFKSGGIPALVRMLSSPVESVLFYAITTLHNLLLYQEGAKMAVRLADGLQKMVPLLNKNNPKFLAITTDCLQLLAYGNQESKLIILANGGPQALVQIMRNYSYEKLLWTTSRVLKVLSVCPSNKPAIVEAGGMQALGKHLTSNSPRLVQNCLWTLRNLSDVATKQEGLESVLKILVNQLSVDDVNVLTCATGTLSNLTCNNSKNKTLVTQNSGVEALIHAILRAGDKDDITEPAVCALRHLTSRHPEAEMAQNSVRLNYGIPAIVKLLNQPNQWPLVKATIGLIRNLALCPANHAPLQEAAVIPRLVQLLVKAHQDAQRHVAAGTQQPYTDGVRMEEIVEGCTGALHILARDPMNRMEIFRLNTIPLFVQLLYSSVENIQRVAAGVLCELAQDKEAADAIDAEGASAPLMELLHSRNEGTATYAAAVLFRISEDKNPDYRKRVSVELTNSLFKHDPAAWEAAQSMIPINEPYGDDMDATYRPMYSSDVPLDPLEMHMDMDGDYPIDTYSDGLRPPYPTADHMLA
Test: SPR

binding result: binds
B1: Human PRDM14, GST-Tag at N-terminus (GST-PRDM14) (natural protein, UniProt Q9GZV8 1-571, looked up)
chain: MALPRPSEAVPQDKVCYPPESSPQNLAAYYTPFPSYGHYRNSLATVEEDFQPFRQLEAAASAAPAMPPFPFRMAPPLLSPGLGLQREPLYDLPWYSKLPPWYPIPHVPREVPPFLSSSHEYAGASSEDLGHQIIGGDNESGPCCGPDTLIPPPPADASLLPEGLRTSQLLPCSPSKQSEDGPKPSNQEGKSPARFQFTEEDLHFVLYGVTPSLEHPASLHHAISGLLVPPDSSGSDSLPQTLDKDSLQLPEGLCLMQTVFGEVPHFGVFCSSFIAKGVRFGPFQGKVVNASEVKTYGDNSVMWEIFEDGHLSHFIDGKGGTGNWMSYVNCARFPKEQNLVAVQCQGHIFYESCKEIHQNQELLVWYGDCYEKFLDIPVSLQVTEPGKQPSGPSEESAEGYRCERCGKVFTYKYYRDKHLKYTPCVDKGDRKFPCSLCKRSFEKRDRLRIHILHVHEKHRPHKCSTCGKCFSQSSSLNKHMRVHSGDRPYQCVYCTKRFTASSILRTHIRQHSGEKPFKCKYCGKSFASHAAHDSHVRRSHKEDDGCSCSICGKIFSDQETFYSHMKFHEDY

Source: paper PMC5797828 (Cancer Science, 2017)
